B1: ANKRD9 (parent)
chain: LLEDMRASEAFHWDERGRAAAYSP
B2: TRAF3IP2 (parent)
chain: APWNYHYHCPGSPDHQVPYGHDYP

Variants of: B1
Experiment: protein stability index of a GFP-peptide fusion (GPS, HEK-293T) (PSI 1-6); higher = more stable
Details: c terminus: a fixed tail appended
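Note: lentivirally expressed fusions sorted by FACS into six bins by GFP to DsRed ratio, PSI derived from sequencing read proportions per bin multiplied by bin number.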

Protein stability index: each site, then its substitutions
G17: R 2.06, E 2.31, W 1.1, V 3.02, F 2.59, K 1.78, H 1.44, T 1.42, C 2.39, N 2.52
H12: K 2.5, P 1.95, T 2.21, M 1.68, G 2.49, D 2.1, L 2.68, R 2.2, A 3.33, I 2.61, V 1.34, E 1.83, F 2.29, C 3.35
P24: H 2.19, Y 1.6, E 2.48, K 1.53, S 3.62, D 1.75, L 1.38, Q 1.58, A 2.1, T 2.34, V 1.68, N 2.41, F 1.23, R 1.75
F11: T 2.5, D 3.58, M 2.28, N 2.84, I 1.78, Y 2.03, E 1.74, S 2.91, R 2.87, P 2.5, H 2.66, A 2.71, G 3.23, Q 2.32, L 1.98, K 3.72
M5: L 1.6, V 3.77, H 3.39, G 3.94, Y 3.83, S 3.3, P 4.09, N 4.1, T 4.12, A 3.92, Q 3.91, W 3.64, I 2.89, E 4.66, K 3.97, F 3.94
A7: H 3.62, V 2.35, G 3.01, S 1.78, F 2.64, C 1.8, M 2.34, K 1.52, E 1.27, Y 1.8, L 2.19, Q 1.8, R 1.76, D 2.51, P 4.21, W 2.3, T 2.15, I 1.96
Y22: A 3.01, T 4.08, D 2.2, Q 2.39, H 1.76, C 1.8, M 1.64, S 2, G 1.63, I 2.17, R 1.81, K 2.18, L 1.81, E 2.62
W13: H 2.66, Y 1.39, N 2.2, P 2.74, V 2.05, K 2.93, M 1.84, G 2.61, D 2.24, E 2.06, R 2.94, L 2.41, F 2.05, C 2.53, I 1.87, A 2.16
A10: S 1.85, M 1.94, T 2.44, L 2.82, N 1.54, P 3.58, K 1.97, V 1.5, R 1.86, C 1.39, H 2.7, F 2.1, G 2.46, E 1.81, W 1.94, D 1.23
A19: P 2.31, V 1.99, R 1.84, H 1.69, Y 1.28, K 2.27, W 1.53, D 1.36, C 2.26, S 2.23, L 2.39, T 1.88, F 1.54, E 1.55, Q 1.22, I 1.03, N 1.84
E15: K 1.8, D 1.56, Y 1.81, F 2.95, A 1.31, G 1.7, P 1.88, M 1.32, L 1.5, S 1.64, Q 1.94, I 2.83, R 1.58, H 2.68, T 1.91, C 2.68, V 1.52
A21: R 2.23, I 1.71, V 3.25, N 2.15, F 2.55, K 1.95, T 1.43, S 1.62, G 1.33, D 2.06, M 1.96, H 1.45, Y 2.08, E 2.53, L 1.87, W 1.42, Q 2.29, P 1.86, C 2.15
A20: Y 1.85, E 1.92, H 2.13, T 2.36, C 1.46, M 2.55, K 1.62, V 1.34, L 2.27, P 1.92, D 2.64, I 1.97, Q 1.48, R 1.1, F 1.81, S 1.62
R6: I 2.32, Y 2.43, E 3.96, T 2.5, N 2.97, D 4.03, F 2.79, K 2.85, A 3.56, W 1.87, S 2.9, V 2.43, P 3.27, H 2.95, C 3.6, L 1.1, M 2.17
S8: M 3.04, A 3.3, N 4.13, Q 3.91, K 3.96, F 3.31, V 2.82, H 3.13, I 1.95, R 2.88, Y 2.7, W 3.13, D 3.89, P 3.3, G 2.19, C 2.5, T 1.82, L 2.73
R16: Q 1.9, V 1.79, E 1.93, N 1.93, W 1.58, M 1.32, T 1.74, I 3.12, A 2.24, F 1.86, K 1.32, S 1.44, G 1.88, L 2.41, H 2.44, C 1.56
D4: T 2.62, W 1.52, V 2.19, Y 1.9, S 2.23
D14: R 2.29, F 1.36, H 2.13, Q 1.58, L 2.09, K 1.41, P 1.6, W 2.41, I 1.77, V 1.35, Y 1.98, T 2.57, N 2.11, M 2.33
S23: R 1.91, Y 1.74, H 1.98, I 2.61, F 1.35, L 2.1, P 1.4, M 2.68, A 2.09, N 1.16, K 2.05, Q 3.31, G 1.68, T 2.08, E 1.85, D 2.09, V 2.08
E9: K 3.29, Q 4.46, R 2.77, D 2.99, Y 2.48, S 3, H 3.31, G 2.06, L 1.89, T 2.96, V 2.19, P 2.8, I 1.79, W 1.32, F 2.32, A 3.12, M 2.46
R18: P 1.56, A 2.65, L 2.24, V 2.36, F 2.22, T 1.7, I 1.65, M 2.34, K 1.8, E 1.96, N 2.14, C 1.69, H 2.66, S 1.88, D 1.91, G 2.12, Q 1, Y 1.71

Variants of: B2
Experiment: as above
Details: c terminus: a fixed tail appended

Protein stability index, by site and new letter:
A1: I 1.71, F 2.12, D 3.33, C 2.72, K 2.81, L 2.08, G 3.39, E 2.91, H 3.12
